Measured values reported in US20150344570A1 (published 2015).

T1: FcγRIIb (human, UniProt P31994 43-217)
T1 construct: extracellular domain; Soluble His-tagged extracellular domain expressed in FreeStyle293 cells; analyte in Biacore; also called FcgRIIb; 2b; not shown: His tag attached to the C terminus
T1 sequence (looked up): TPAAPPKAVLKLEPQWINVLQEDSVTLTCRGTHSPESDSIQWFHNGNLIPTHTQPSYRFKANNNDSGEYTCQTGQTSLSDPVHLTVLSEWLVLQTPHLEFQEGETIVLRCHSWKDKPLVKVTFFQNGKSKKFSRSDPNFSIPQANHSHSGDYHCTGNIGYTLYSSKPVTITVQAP

T2: FcγRIIa R (human, UniProt P12318 34-217)
T2 construct: extracellular domain; Soluble His-tagged extracellular domain expressed in FreeStyle293 cells; analyte in Biacore; also called FcgRIIa R; FcgRIIaR; not shown: His tag attached to the C terminus
T2 sequence (looked up): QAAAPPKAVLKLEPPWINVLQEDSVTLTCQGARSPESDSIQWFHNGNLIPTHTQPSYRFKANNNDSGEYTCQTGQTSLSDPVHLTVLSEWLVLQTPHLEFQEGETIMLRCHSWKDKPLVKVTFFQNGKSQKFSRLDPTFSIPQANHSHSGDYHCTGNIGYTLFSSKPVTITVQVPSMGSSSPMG

T3: FcγRIIa R (extracellular domain, His tag at the C terminus) (human, UniProt P12318 34-217)
T3 construct: extracellular domain; Soluble analyte in Biacore; also called FcgRIIa R type; 2aR
T3 sequence (looked up): T2 sequence (looked up)

B1: GpH7-A5/GpH7-B3 variant P329_01G/GpL16-k0 (antibody, human IgG1, kappa)
heavy 1: not shown
heavy 2: not shown
light: DIVMTQSPLSLPVTPGEPASISCQASESLVHSNRNTYLHWYLQKPGQSPQLLIYKVSNRFSGVPDRFSGSGSGTDFTLKISRVEAEDVGVYYCSQNTHVPPTFGQGTKVEIERTVAAPSVFIFPPSDEQLKSGTASVVCLLNNFYPREAKVQWKVDNALQSGNSQESVTEQDSKDSTYSLSSTLTLSKADYEKHKVYACEVTHQGLSSPVTKSFNRGEC
notes: Heterodimerized anti-glypican-3 IgG1 antibody; alteration only in the GpH7-B3 H chain; position in EU numbering; also called He Ab
B2: GpH7-A5/GpH7-B3 variant I336_20W/GpL16-k0 (antibody, human IgG1, kappa)
heavy 1: not shown
heavy 2: not shown
light: B1 light
notes: as for B1
B3: GpH7-A5/GpH7-B3 variant A330_10E/GpL16-k0 (antibody, human IgG1, kappa)
heavy 1: not shown
heavy 2: not shown
light: B1 light
notes: as for B1
B4: GpH7-A5/GpH7-B3 variant P329_11K/GpL16-k0 (antibody, human IgG1, kappa)
heavy 1: not shown
heavy 2: not shown
light: B1 light
notes: as for B1
B5: GpH7-A5/GpH7-B3 variant Y300_05P/GpL16-k0 (antibody, human IgG1, kappa)
heavy 1: not shown
heavy 2: not shown
light: B1 light
notes: as for B1
B6: GpH7-A5/GpH7-B3 variant A330_12R/GpL16-k0 (antibody, human IgG1, kappa)
heavy 1: not shown
heavy 2: not shown
light: B1 light
notes: as for B1
B7: GpH7-A5/GpH7-B3 variant P329_09D/GpL16-k0 (antibody, human IgG1, kappa)
heavy 1: not shown
heavy 2: not shown
light: B1 light
notes: as for B1
B8: GpH7-A5/GpH7-B3 variant P329_04F/GpL16-k0 (antibody, human IgG1, kappa)
heavy 1: not shown
heavy 2: not shown
light: B1 light
notes: as for B1
B9: GpH7-A5/GpH7-B3 variant A330_14T/GpL16-k0 (antibody, human IgG1, kappa)
heavy 1: not shown
heavy 2: not shown
light: B1 light
notes: as for B1
B10: GpH7-A5/GpH7-B3 variant P329_10E/GpL16-k0 (antibody, human IgG1, kappa)
heavy 1: not shown
heavy 2: not shown
light: B1 light
notes: as for B1
B11: GpH7-A5/GpH7-B3 variant N325_02A/GpL16-k0 (antibody, human IgG1, kappa)
heavy 1: not shown
heavy 2: not shown
light: B1 light
notes: as for B1
B12: GpH7-A5/GpH7-B3 variant N325_19Q/GpL16-k0 (antibody, human IgG1, kappa)
heavy 1: not shown
heavy 2: not shown
light: B1 light
notes: as for B1
B13: GpH7-A5/GpH7-B3 variant N325_12R/GpL16-k0 (antibody, human IgG1, kappa)
heavy 1: not shown
heavy 2: not shown
light: B1 light
notes: as for B1
B14: GpH7-A5/GpH7-B3 variant N325_05P/GpL16-k0 (antibody, human IgG1, kappa)
heavy 1: not shown
heavy 2: not shown
light: B1 light
notes: as for B1
B15: GpH7-A5/GpH7-B3 variant Y300_04F/GpL16-k0 (antibody, human IgG1, kappa)
heavy 1: not shown
heavy 2: not shown
light: B1 light
notes: heterodimerized; also called He Ab
B16: GpH7-A5/GpH7-B3 variant P329_07I/GpL16-k0 (antibody, human IgG1, kappa)
heavy 1: not shown
heavy 2: not shown
light: B1 light
notes: as for B1
B17: GpH7-A5/GpH7-B3 variant A330_08L/GpL16-k0 (antibody, human IgG1, kappa)
heavy 1: not shown
heavy 2: not shown
light: B1 light
notes: as for B1
B18: GpH7-A5/GpH7-B3 variant P329_03V/GpL16-k0 (antibody, human IgG1, kappa)
heavy 1: not shown
heavy 2: not shown
light: B1 light
notes: as for B1
B19: GpH7-A5/GpH7-B3 variant P329_13S/GpL16-k0 (antibody, human IgG1, kappa)
heavy 1: not shown
heavy 2: not shown
light: B1 light
notes: as for B1
B20: GpH7-A5/GpH7-B3 variant P329_06M/GpL16-k0 (antibody, human IgG1, kappa)
heavy 1: not shown
heavy 2: not shown
light: B1 light
notes: as for B1
B21: GpH7-A5/GpH7-B3 variant A330_13S/GpL16-k0 (antibody, human IgG1, kappa)
heavy 1: not shown
heavy 2: not shown
light: B1 light
notes: as for B1
B22: GpH7-A5/GpH7-B3 variant P329_08L/GpL16-k0 (antibody, human IgG1, kappa)
heavy 1: not shown
heavy 2: not shown
light: B1 light
notes: as for B1
B23: GpH7-A5/GpH7-B3 variant A330_09D/GpL16-k0 (antibody, human IgG1, kappa)
heavy 1: not shown
heavy 2: not shown
light: B1 light
notes: as for B1
B24: GpH7-A5/GpH7-B3 variant A330_03V/GpL16-k0 (antibody, human IgG1, kappa)
heavy 1: not shown
heavy 2: not shown
light: B1 light
notes: as for B1
B25: GpH7-A5/GpH7-B3 variant A330_18N/GpL16-k0 (antibody, human IgG1, kappa)
heavy 1: not shown
heavy 2: not shown
light: B1 light
notes: as for B1
B26: GpH7-A5/GpH7-B3 variant P329_02A/GpL16-k0 (antibody, human IgG1, kappa)
heavy 1: not shown
heavy 2: not shown
light: B1 light
notes: as for B1
B27: GpH7-A5/GpH7-B3 variant P329_12R/GpL16-k0 (antibody, human IgG1, kappa)
heavy 1: not shown
heavy 2: not shown
light: B1 light
notes: as for B1
B28: GpH7-A5/GpH7-B3 variant A330_07I/GpL16-k0 (antibody, human IgG1, kappa)
heavy 1: not shown
heavy 2: not shown
light: B1 light
notes: as for B1
B29: GpH7-A5/GpH7-B3 variant N325_16H/GpL16-k0 (antibody, human IgG1, kappa)
heavy 1: not shown
heavy 2: not shown
light: B1 light
notes: as for B1
B30: GpH7-A5/GpH7-B3 variant N325_11K/GpL16-k0 (antibody, human IgG1, kappa)
heavy 1: not shown
heavy 2: not shown
light: B1 light
notes: as for B1

Key:
FcγRIIb = target: T1, FcγRIIb; test: SPR (Biacore), antibody captured via antigen peptide, FcγR as analyte
Protocol: (§1) The heterodimerized antibodies He Abs in which one of the H chains was introduced with an alteration were assayed for their binding activities to each activating FcγR and inhibitory FcγR according to the method described in Example 4. […] The activating FcγRs in FIGS. 26, 27, 28, and 29 are FcγRIa, FcγRIIa (R), FcγRIIa (H), and FcγRIIIa, respectively.
(§2) Analysis of interaction between objective antibody and the FcγR was carried out using Biacore T100 (GE Healthcare). HBS-EP+ (GE Healthcare) was used as the running buffer, and the measurement temperature was set to 25° C. Chips produced by immobilizing the antigen peptide by the amine coupling method to a Series S Sencor Chip CM5 (GE Healthcare), or alternatively, chips produced by allowing preliminarily biotinylated antigen peptides to interact with and immobilize onto a Series S Sensor Chip SA (certified) (GE Healthcare) were used. Antibodies of interest were captured onto an antigen peptide-immobilized chip, and allowed to interact to each FcγR diluted with running buffer. To regenerate and repeatedly use the chip, the antibodies captured on the chip were washed off by reacting 10 mM glycine-HCl, pH 1.5.

FcγRIIa R [1] = target: T2, FcγRIIa R; test: as above
Protocol: as §1, §2

FcγRIIa R [2] = target: T2, FcγRIIa R; test: ratio of He/Con_2aR to He/Con_2b (binding to FcγRIIb as reference); SPR
[3] = target: T3, FcγRIIa R (extracellular domain, His …); test: SPR (Biacore), relative binding, control GpH7-A5/GpH7-B3/GpL16-k0 = 100
Protocol: as §2

Binder	He/Con_2b (IIb binding relative to GpH7-A5/GpH7-B3/GpL16-k0) (FcγRIIb)	He/Con_2aR (IIaR binding relative to GpH7-A5/GpH7-B3/GpL16-k0) (FcγRIIa R [1])	He_2aR/2b (IIaR/IIb) (FcγRIIa R [2])	He/Con_2aR [3]
B1	41.7 % of control (control = 100)	55 % of control (control = 100)	1.32	
B2	20.3 % of control (control = 100)	30.3 % of control (control = 100)	1.5	
B3	70.1 % of control (control = 100)	86.6 % of control (control = 100)	1.23	
B4	16.9 % of control (control = 100)	30.2 % of control (control = 100)	1.79	
B5		10.8 % of control (control = 100)	1.47	
B6	84.8 % of control (control = 100)	104 % of control (control = 100)	1.22	
B7	53.5 % of control (control = 100)	67.8 % of control (control = 100)	1.27	
B8	32.2 % of control (control = 100)	44.7 % of control (control = 100)	1.39	
B9	77.9 % of control (control = 100)	95.5 % of control (control = 100)	1.23	
B10	52.7 % of control (control = 100)	64.8 % of control (control = 100)	1.23	
B11	64.4 % of control (control = 100)	84.1 % of control (control = 100)	1.31	
B12	69.1 % of control (control = 100)	92.1 % of control (control = 100)	1.33	
B13	19.1 % of control (control = 100)	26.1 % of control (control = 100)	1.37	
B14	26 % of control (control = 100)	42.2 % of control (control = 100)	1.63	
B15				108 % of control
B16	34.6 % of control (control = 100)	49.6 % of control (control = 100)	1.44	
B17	70.5 % of control (control = 100)	88.8 % of control (control = 100)	1.26	
B18	38.5 % of control (control = 100)	53.8 % of control (control = 100)	1.4	
B19	41 % of control (control = 100)	61.5 % of control (control = 100)	1.5	
B20	29.1 % of control (control = 100)	42.7 % of control (control = 100)	1.47	
B21	41.3 % of control (control = 100)	60.8 % of control (control = 100)	1.47	
B22	29.1 % of control (control = 100)	42.8 % of control (control = 100)	1.47	
B23	55.6 % of control (control = 100)	70.9 % of control (control = 100)	1.27	
B24	52.4 % of control (control = 100)	74.9 % of control (control = 100)	1.43	
B25	63.7 % of control (control = 100)	81.1 % of control (control = 100)	1.27	
B26	40.5 % of control (control = 100)	58.9 % of control (control = 100)	1.45	
B27	17.6 % of control (control = 100)	29.3 % of control (control = 100)	1.66	
B28	67.1 % of control (control = 100)	85.6 % of control (control = 100)	1.27	
B29	70.1 % of control (control = 100)	89 % of control (control = 100)	1.27	
B30	10.4 % of control (control = 100)	16.2 % of control (control = 100)	1.57	
